Experimental data published in patent US11872270B2, “A*03 restricted peptides for use in immunotherapy against cancers and related methods” (Immatics Biotechnologies GmbH, priority 2018, dated 2024).

Columns and labels:
CD8+ T cells = test: In vitro T-cell priming assay (immunogenicity) with aAPCs loaded with peptide/MHC complexes and anti-CD28 antibody; format: cell-based, human; conditions: for Wells positive [%]: in vitro immunogenicity; for in vitro immunogenicity (peptide-specific CD8+ T cell response): healthy donors, multimer staining after three cycles of stimulation
HLA-A*03:01 = HLA-A*03:01 (Homo sapiens, UniProt P04439); test: MHC binding assay (UV-ligand exchange, β2m ELISA); conditions: for Peptide exchange (MHC class I binding score, peptide exchange yield): binding to HLA-A*03:01, UV-ligand exchange, β2m ELISA
Outline: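 Peptide-MHC complexes formed by UV-ligand exchange of a UV-cleavable peptide for the test peptide; exchange yield quantified by β2m ELISA. Streptavidin-coated capture, samples diluted 100-fold, 1 h at 37 °C, HRP anti-β2m detection, TMB read at 450 nm against HLA-A*02:01/MLA-001 monomer standards (15–500 ng/ml).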

[1] = HLA-A*03 restricted peptides, Table 10b

| Substance | Wells positive [%] (CD8+ T cells; [1]) | Peptide exchange (MHC class I binding score, peptide exchange yield) (HLA-A*03:01) | further results |
| --- | --- | --- | --- |
| 29 (KVLSILSRLK; listed as Homo sapiens) [compound 29] | “+” (1-19% = +) | +++ (>50 = +++) | – |
| 33 (KLLEDMVEK; listed as Homo sapiens) [compound 33] | “+” (1-19% = +) | ++ (>20% = ++) | – |
| 45 (KCYEVGMMK; listed as Homo sapiens) [compound 45] | “+” (1-19% = +) | ++++ (>75% = ++++) | – |
| 46 (VVTGNVPLK; listed as Homo sapiens) [compound 46] | “+” (1-19% = +) | +++ (>50 = +++) | – |
| 52 (GMYEYGSIEK; listed as Homo sapiens) [compound 52] | “+” (1-19% = +) | ++++ (>75% = ++++) | – |
| 57 (RVLYRPQLEK; listed as Homo sapiens) [compound 57] | “+” (1-19% = +) | +++ (>50 = +++) | – |
| 64 (SVLSRMLVR; listed as Homo sapiens) [compound 64] | “+” (1-19% = +) | ++++ (>75% = ++++) | – |
| 69 (GLSTILLYH; listed as Homo sapiens) [compound 69] | “+” (1-19% = +) | ++++ (>75% = ++++) | – |
| 71 (VLYELGIIGNNK; listed as Homo sapiens) [compound 71] | “+” (1-19% = +) | +++ (>50 = +++) | – |
| 77 (VVDDSQLPK; listed as Homo sapiens) [compound 77] | “+” (1-19% = +) | ++ (>20% = ++) | – |
| 81 (HLFLPFSYK; listed as Homo sapiens) [compound 81] | “+” (1-19% = +) | ++++ (>75% = ++++) | – |
| 214 (KLFTSVFGVGLK; listed as Homo sapiens) [compound 214] | “+” (1-19% = +) | ++++ (>75% = ++++) | – |
| 232 (AVAPPTPASK; listed as Homo sapiens) [compound 232] | – | – | Wells positive [%] (CD8+ T cells; Table 10a): + (<20% = +) |
| 233 (KTYETNLEIKK; listed as Homo sapiens) [compound 233] | – | – | Wells positive [%] (CD8+ T cells; Table 10a): + (<20% = +) |
| 234 (VVFPFPVNK; listed as Homo sapiens) [compound 234] | – | – | Wells positive [%] (CD8+ T cells; Table 10a): + (<20% = +) |
| 237 (VLYGPAGLGK; listed as Homo sapiens) [compound 237] | – | – | Wells positive [%] (CD8+ T cells; Table 10a): + (<20% = +) |

| Substance | Wells positive [%] (CD8+ T cells; [1]) | Peptide exchange (MHC class I binding score, peptide exchange yield) (HLA-A*03:01) | further results |
| --- | --- | --- | --- |
| 248 (GLASRILDAK; listed as Homo sapiens) [compound 248] | – | – | Wells positive [%] (CD8+ T cells; Table 10a): + (<20% = +) |
| 249 (ATSGVPVYK; listed as Homo sapiens) [compound 249] | – | – | Wells positive [%] (CD8+ T cells; Table 10a): ++++ (>=70% = ++++) |
| 252 (AVYNYPEGAAY; listed as Homo sapiens) [compound 252] | – | ++++ (>75% = ++++) | – |
| 253 (KLSLSHKK; listed as Homo sapiens) [compound 253] | – | +++ (>50 = +++) | – |
| 254 (SVLDKLLFH; listed as Homo sapiens) [compound 254] | – | ++++ (>75% = ++++) | – |
| 256 (AVIGALLAVGATK; listed as Homo sapiens) [compound 256] | – | +++ (>50 = +++) | – |
| 258 (QVRDTLKIVFK; listed as Homo sapiens) [compound 258] | – | +++ (>50 = +++) | – |
| 259 (RSYVPLAH; listed as Homo sapiens) [compound 259] | – | ++++ (>75% = ++++) | – |
| 261 (AVAQKLLSH; listed as Homo sapiens) [compound 261] | – | ++++ (>75% = ++++) | – |
| 262 (TMWQIPQEFVK; listed as Homo sapiens) [compound 262] | – | ++++ (>75% = ++++) | – |
| 271 (RLPLRVVKH; listed as Homo sapiens) [compound 271] | – | ++++ (>75% = ++++) | – |
| 272 (AVCGGVLVH; listed as Homo sapiens) [compound 272] | – | ++++ (>75% = ++++) | – |
| ATSGVPVYK (listed as Homo sapiens) [SEQ ID NO: 249] | – | – | in vitro immunogenicity (peptide-specific CD8+ T cell response) (CD8+ T cells): peptide-specific in vitro CD8+ T cell responses |
| AVCGGVLVH (listed as Homo sapiens) [SEQ ID NO: 272] | – | – | binding to HLA-A*03 (HLA-A*03:01): binds to HLA-A*03 |
| GLASRILDAK (listed as Homo sapiens) [SEQ ID NO: 248] | – | – | in vitro immunogenicity (peptide-specific CD8+ T cell response) (CD8+ T cells): peptide-specific in vitro CD8+ T cell responses |
| RLPLRVVKH (listed as Homo sapiens) [SEQ ID NO: 271] | – | – | binding to HLA-A*03 (HLA-A*03:01): binds to HLA-A*03 |
